Series [1] is described as follows: Propane hydroxylation (rate, total turnover, products). It is filed as biochemical. The protocol: Cell lysates for high throughput screening were prepared as described previously (Peters et al., J. Am. Chem. Soc. 125:13442 (2003); incorporated by reference herein). High-throughput dimethyl ether (DME) screens were performed in 96 well plates as described previously. Improved mutants were selected based on an increased signal compared to 9-10A (for the saturation mutagenesis libraries) and 1-12G (for the recombination library). Reactions on octane and propane were analyzed by gas chromatography as described.
Rates of ethanol formation were measured over 30 min using gas chromatography (GC) coupled to an electron capture detector (ECD) and are reported as nmol ethanol/min/nmol enzyme. Errors are at most 10%. Total turnover number (ttn) was measured using GC after completion of the reaction and is reported as nmol product/nmol protein. Errors are at most 10%. Initial rates of propanol and octanol formation were measured over 1 min by GC and are reported as nmol product/min/nmol protein. Errors are at most 15%. The “ee” of 2-octanol (main product) was measured by GC; the favored enantiomer is listed in parenthesis. Wild-type P450 BM-3 primarily produces 3- and 4-octanol. The yields were not sufficient for the determination of ee for wt BM-3. Mutant 9-10A contains amino acid substitutions R47C, V78A K94I, P142S, T175I, A184V, F205C, S226R, H236Q, E252G, R255S, A290V, and L353V.
In Table 5 the product distribution is determined as ratio of a specific alcohol product to the total amount of all alcohol products (given in %). The product distribution for ketones was similar to alcohol product distribution. The numbers reported here are the (%) total of all ketones relative to total products (alcohols+ketones). The favored enantiomer is listed in parentheses.
For the data shown in Table 6 the initial NADPH consumption rates were measured over 15 seconds at 340 nm as nmol NADPH/min/nmol protein. Octane reactions contained 100 nM P450, 166 uM NADPH, and 4 mM octane in 1% ethanol and potassium phosphate buffer. […] Errors are at most 10%. Initial rates were measured by GC over 1 minute as nmol total products/min/nmol protein. Octane reactions contained 100 nM P450, 500 uM NADPH, and 4 mM octane in 1% ethanol and potassium phosphate buffer. Propane reactions contained 1 uM P450, 500 uM NADPH, and propane-saturated potassium phosphate buffer. Coupling was determined by ratio of product formation rate to NADPH consumption rate. Total turnover numbers were determined as nmol product/nmol enzyme. Octane reactions contained 10-25 nM P450, 500 uM NADPH, and 4 mM octane in 1% ethanol and potassium phosphate buffer. Propane reactions contained 10-25 nM protein, potassium phosphate buffer saturated with propane, and an NADPH regeneration system containing 100 uM NADP+, 2 U/mL isocitrate dehydrogenase, and 10 mM isocitrate.

A short description of series [2]: Kinetic measurements (Michaelis-Menten): propane. It is filed as biochemical. The following applies: N.a. = not active. The method, then: Rate measurements. Initial rates of product formation were determined at 25° C. in 100 mM KPi pH 8.0 buffer using purified protein (100 nM) and a substrate concentration of 1.6 mM. In a 5 mL-vial, 20 μL of alkane solution (in ethanol) were dissolved in 400 μL KPi buffer, to which 500 μL enzyme solution at 100-200 nM was added. Reaction was initiated by adding 100 μL of 5 mM NADPH solution, followed by stirring at 300 rpm for 1 minute, and quenched by adding 200 μL chloroform and stirring at 800 rpm for 10 sec. Solutions were transferred to an Eppendorf tube, to which internal standard (10 μL 25 mM 1-bromohexane in ethanol) was added. Tubes were vortexed for 10 sec and centrifuged for 30 sec at 10,000 g. Organic phase was removed and analyzed by GC. For propane, reactions were carried out in a 5 mL-scale using 100-400 nM purified enzyme, propane-saturated buffer (propane concentration≈1.6 mM) and a final NADPH concentration of 500 μM. Reactions were stopped by addition of 200 μL H2SO4 conc. and analyzed by derivatization to alkyl nitrites followed by GC-ECD analysis as described below.
Kinetic measurements. […] Reactions were carried out in a 5 mL-scale using 100-400 nM purified enzyme and a final NADPH concentration of 1 mM. After 30 seconds, reactions were stopped by addition of 200 μL H2SO4 conc. and analyzed by GC as described below. Propane leakage during the experiment was neglected in reason of short measuring time. All measurements were performed in triplicate. Kinetic parameters were estimated from least-squares nonlinear regression to the Michaelis-Menten equation,
[formula] where v is the initial velocity, S is the substrate concentration, Vmax is the maximum velocity, and Km is the apparent Michaelis constant for the substrate.
Products from alkane reactions were identified and quantified by gas chromatography using authentic standards and calibration curves with internal standards. For the reactions with alkanes from pentane to decane, GC analyses were carried out using a Shimadzu GC-17A gas chromatograph, Agilent HP5 column (30 m×0.32 mm×0.1 μm film), 1 μL injection, FID detector, and the following separation program: 250° C. inlet, 250° C. detector, 50° C. oven for 3 min, 5° C./min gradient to 100° C., 25° C./min gradient to 230° C., and 230° C. for 3 min. For butane and propane (TTN) reactions, GC analyses were carried out using a Hewlett-Packard 5890 Series II Plus gas chromatograph, Supelco SPB-1 column (60 m×0.52 mm×0.5 μm film), 0.5 μL injection, FID detector, and the following separation program: 250° C. inlet, 275° C. detector, 80° C. oven for 2 min, 10° C./min gradient to 110° C., 25° C./min gradient to 275° C., and 275° C. for 2.5 min. […] Organic solutions were analyzed by FID-GC.

B1: Wild-type BM-3: wild-type cytochrome P450 BM-3 from Bacillus megaterium, SEQ ID NO:1 (protein, listed as Bacillus megaterium)
chain: TIKEMPQPKTFGELKNLPLLNTDKPVQALMKIADELGEIFKFEAPGRVTRYLSSQRLIKEACDESRFDKNLSQALKFVRDFAGDGLFTSWTHEKNWKKAHNILLPSFSQQAMKGYHAMMVDIAVQLVQKWERLNADEHIEVPEDMTRLTLDTIGLCGFNYRFNSFYRDQPHPFITSMVRALDEAMNKLQRANPDDPAYDENKRQFQEDIKVMNDLVDKIIADRKASGEQSDDLLTHMLNGKDPETGEPLDDENIRYQIITFLIAGHETTSGLLSFALYFLVKNPHVLQKAAEEAARVLVDPVPSYKQVKQLKYVGMVLNEALRLWPTAPAFSLYAKEDTVLGGEYPLEKGDELMVLIPQLHRDKTIWGDDVEEFRPERFENPSAIPQHAFKPFGNGQRACIGQQFALHEATLVLGMMLKHFDFEDHTNYELDIKETLTLKPEGFVVKAKSKKIPLGGIPSPSTEQSAKKVRKKAENAHNTPLLVLYGSNMGTAEGTARDLADIAMSKGFAPQVATLDSHAGNLPREGAVLIVTASYNGHPPDNAKQFVDWLDQASADEVKGVRYSVFGCGDKNWATTYQKVPAFIDETLAAKGAENIADRGEADASDDFEGTYEEWREHMWSDVAAYFNLDIENSEDNKSTLSLQFVDSAADMPLAKMHGAFSTNVVASKELQQPGSARSTRHLEIELPKEASYQEGDHLGVIPRNYEGIVNRVTARFGLDASQQIRLEAEEEKLAHLPLAKTVSVEELLQYVELQDPVTRTQLRAMAAKTVCPPHKVELEALLEKQAYKEQVLAKRLTMLELLEKYPACEMKFSEFIALLPSIRPRYYSISSSPRVDEKQASITVSVVSGEAWSGYGEYKGIASNYLAELQEGDTITCFISTPQSEFTLPKDPETPLIMVGPGTGVAPFRGFVQARKQLKEQGQSLGEAHLYFGCRSPHEDYLYQEELENAQSEGIITLHTAFSRMPNQPKTYVQHVMEQDGKKLIELLDQGAHFYICGDGSQMAPAVEATLMKSYADVHQVSEADARLWLQQLEEKGRYAKDVWAG
On to B1, for which the activity on propane entry in series [1] (listed as P450BM3) is “no measurable activity”; in series [1] (listed as wild-type P450BM3) it was “no detectable propane activity”; in series [1] (listed as wildtype cytochrome P450 BM-3), “inactive”.

B2: 35-E11: P450 BM-3 variant, SEQ ID NO:7: 53-5H substitutions plus E464G and I710T (protein)
chain: TIKEMPQPKTFGELKNLPLLNTDKPVQALMKIADELGEIFKFEAPGCVTRYLSSQRLIKEACDESRFDKNLSQALKFFRDFSGDGLFTSWTHEINWKKAHNILLPSFSQQAMKGYHAMMVDIAVQLVQKWERLNADEHIEVSEDMTRLTLDTIGLCGFNYRFNSFYRDQPHPFIISMVRALDEVMNKLQRANPDDPAYDENKRQCQEDIKVMNDLVDKIIADRKARGEQSDDLLTQMLNGKDPETGEPLDDGNISYQIITFLIAGHETTSGLLSFALYFLVKNPHVLQKVVEEAARVLVDPVPSYKQVKQLKYVGMVLNEALRLWPTFPAFSLYAKEDTVLGGEYPLEKGDEVMVLIPQLHRDKTIWGDDVEEFRPERFENPSAIPQHAFKPFGNGQRACIGQQFALHEATLVLGMMLKHFDFEDHTNYELDIKETLTLKPEGFVVKAKSKKIPLGGIPSPSTGQSAKKVRKKAENAHNTPLLVLYGSNMGTAEGTARDLADIAMSKGFAPQVATLDSHAGNLPREGAVLIVTASYNGHPPDNAKQFVDWLDQASADEVKGVRYSVFGCGDKNWATTYQKVPAFIDETLAAKGAENIADRGEADASDDFEGTYEEWREHMWSDVAAYFNLDIENSEDNKSTLSLQFVDSAADMPLAKMHGAFSTNVVASKELQQPGSARSTRHLEIELPKEASYQEGDHLGVIPRNYEGTVNRVTARFGLDASQQIRLEAEEEKLAHLPLAKTVSVEELLQYVELQDPVTRTQLRAMAAKTVCPPHKVELEALLEKQAYKEQVLAKRLTMLELLEKYPACEMKFSEFIALLPSIRPRYYSISSSPRVDEKQASITVSVVSGEAWSGYGEYKGIASNYLAELQEGDTITCFISTPQSEFTLPKDPETPLIMVGPGTGVAPFRGFVQARKQLKEQGQSLGEAHLYFGCRSPHEDYLYQEELENAQSEGIITLHTAFSRMPNQPKTYVQHVMEQDGKKLIELLDQGAHFYICGDGSQMAPAVEATLMKSYADVHQVSEADARLWLQQLEEKGRYAKDVWAG
modifications: mutant P450 35-E11 protein sequence
For B2, the Propane ttn in series [1] (after completion of the reaction) is 6000 nmol product/nmol protein. The “Propane Rate” value in series [1] (initial rate of propanol formation over 1 min by GC) is 210 nmol product/min/nmol protein. Further, in series [2], the Km stood at 820 ± 95 µM and the catalytic constant (kcat) came out at 4.08 ± 0.417 s⁻¹.

B3: P450PMO: P450 BM-3 variant, SEQ ID NO:125; 7-7 plus G443A and D698G; propane monooxygenase (protein)
chain: TIKEMPQPKTFGELKNLPLLNTDKPVQALMKIADELGEIFKFEAPGCVTRYISSQRLIKEACDESRFDKNLSQELKFFRDFGGDGLFTSWTHEINWKKAHNILLPSFSQQAMKGYHAMMVDIAVQLVQKWERLNADEHIEVSEDMTRLTLDTIGLCGFNYRFNSFYRDQPHPFIISMVRALDEVMNKPQRANPDDPAYDENKRQCQEDIKVMNDLVDKIIADRKARGEQSDDLLTQMLNGKDPETGEPLDDGNISYQIITFLIAGHETTSGLLSFALYFLVKNPHVLQKVVEEAARVLVDPVPSYKQVKQLKYVGMVLNEALRLWPTFPAFSLYAKEDTVLGGEYPLEKGDEVMVLIPQLHRDKTVWGDDVEEFRPERFENPSAIPQHAFKPFGNGQRACIGQQFALHEATLVLGMMLKHFDFEDHTNYELDIKETLTLKPEAFVVKAKSKKIPLGGIPSPSTGQSAKKVRKKAENAHNTPLLVLYGSNMGTAEGTARDLADIAMSKGFAPQVATLDSHAGNLPREGAVLIVTASYNGHPPDNAKQFVDWLDQASADEVKGVRYSVFGCGDKNWATTYQKVPAFIDETLAAKGAENIADRGEADASDDFEGTYEEWREHMWSDVAAYFNLDIENSEDNKSTLSLQFVDSAADMPLAKMHGAFSTNVVASKELQQPGSARSTRHLEIELPKEASYQEGGHLGVIPRNYEGTVNRVTARFGLDASQQIRLEAEEEKLAHLPLAKTVSVEELLQYVELQDPVTRTQLRAMAAKTVCPPHKVELEALLEKQAYKEQVLAKRLTMLELLEKYPACEMKFSEFIALLPSIRPRYYSISSSPRVDEKQASITVSVVSGEAWSGYGEYKGIASNYLAELQEGDTITCFISTPQSEFTLPKDPETPLIMVGPGTGVAPFRGFVQARKQLKEQGQSLGEAHLYFGCRSPHEDYLYQEELENAQSEGIITLHTAFSRMPNQPKTYVQHVMEQDGKKLIELLDQGAHFYICGDGSQMAPAVEATLMKSYADVHQVSEADARLWLQQLEEKGRYAKDVWAG
modifications: Mutant P450PMO protein sequence
notes: 7-7 plus G443A and D698G; propane monooxygenase
With B3, in series [2], the Km turned out to be 170 µM and the kcat was determined as 3.08 ± 0.583 s⁻¹.

The record behind these values is patent US12258605B2, “Alkane oxidation by modified hydroxylases” (The California Institute of Technology, priority 2005, dated 2025).
